Where two headings read alike, the source gives them in different places.
Legend:
[1] = biological target: Human NGF binding to human TrkA-hFc (Homo sapiens, UniProt P01138, DEL136-138/DEL208-209); assay: BIACORE receptor blocking assay, free NGF bound to TrkA-hFc; settings: percentage free NGF bound; NGF 10-25 nM with molar excess of antibody; NGF alone = 100%
Description: To identify blocking antibodies, a receptor blocking assay was designed using a BIACORE™ 3000 instrument. Recombinant human TrkA-hFc and human p75-hFc proteins were amine-coupled to a CM5 chip to a density of about 5000-6000 RU.

[2] = biological target: T1, NT-3 signaling through TrkC (engineered HEK293 cell line expressing TrkC) (Homo sapiens, UniProt P20783); assay: HEK293/TrkC SRE-luciferase bioassay of NT-3 signaling; format: cell-based; settings: 15 pM NT-3; 6 hours; read-out: IC50, inhibition of NT-3-mediated luciferase activity
T1 construct: host or cells: NT-3 added exogenously; partner TrkC made by an engineered HEK293 line
T1 sequence (P20783 139-257): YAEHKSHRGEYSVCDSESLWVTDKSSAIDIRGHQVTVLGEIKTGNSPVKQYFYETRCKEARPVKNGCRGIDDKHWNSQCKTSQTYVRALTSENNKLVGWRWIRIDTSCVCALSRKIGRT
Procedure: An engineered HEK293 cell line expressing TrkC was transfected with a SRE-luciferase reporter plasmid. NT-3 drives luciferase expression in a 6-hour assay. […] The engineered HEK293 cell line was seeded onto 96-well plates at 1×10^4 cells/well in serum-free media and incubated overnight at 37° C., 5% CO2. […] The cells were then incubated at 37° C., 5% CO2 for 6 hours. Luciferase activity was determined by adding an equal well volume of BRIGHT GLOW™ (Promega).

[3] = biological target: T2, Human NGF (MG87 cells stably transfected with human TrkA receptor) (Homo sapiens, UniProt P01138, DEL136-138/DEL208-209); assay: NGF-dependent, TrkA receptor-mediated cell growth of MG87 cells (CCK8); format: cell-based; settings: 373 pM human NGF; 3 days
T2 construct: host or cells: NGF added exogenously; partner TrkA made by stably transfected MG87 cells
T2 sequence (P01138 with tags, fused parts or gaps DEL136-138/DEL208-209): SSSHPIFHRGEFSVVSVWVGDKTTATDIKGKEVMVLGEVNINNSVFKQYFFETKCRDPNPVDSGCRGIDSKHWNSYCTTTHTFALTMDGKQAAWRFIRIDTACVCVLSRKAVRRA
Procedure: The ability of NGF antibodies to block NGF-dependent and TrkA receptor-mediated cell growth activity was carried out using MG87 cells stably transfected with a plasmid encoding human TrkA receptor. Briefly, the transfected cells were trypsinized and resuspended at approximately 2.5×10^5 cells per ml and plated at 5,000 cells per well in a 96-well tissue culture plate. The purified antibody proteins were serially diluted in defined medium plus 0.1% BSA and added to the plated cells at concentrations ranging from 0 to 500 nM. Human NGF was added to the wells to a final concentration of 373 pM. The response was measured after incubating the cells for 3 days at 37° C. in a humidified 5% CO2 incubator. Cell growth activity was measured with a CCK8 kit (Dojindo) and OD450nm recorded. The dependency of the signals on the concentrations of antibody was analyzed and IC50 values reported (Table 10, column 2).

[4] = biological target: T3, NT-3 signaling through p75 and TrkA in PC12 cell line (Homo sapiens, UniProt P20783); assay: PC12 SRE-luciferase assay with 75 nM NT-3 instead of NGF; format: cell-based; settings: read-out: IC50, blocking of NT-3 signaling
T3 construct: host or cells: NT-3 added exogenously; receptors endogenous in PC12 cells
T3 sequence (P20783 139-257): T1 sequence (P20783 139-257)
Procedure: The ability of NGF antibodies to block NGF signaling p75 and TrkA receptor-mediated activity was also measured in vitro using a rat adrenal medulla cell line, PC12, which express both receptors endogenously (Urdiales et al. 1998 J. Neuroscience 18(17):6767-6775). Briefly, PC12 cells were stably transfected with a reporter plasmid containing a serum response element (SRE) linked to a luciferase gene. The transfected cells were resuspended at approximately 2.5×10^5 cells per ml and plated at 50,000 cells per well in a 96-well tissue culture plate in Opti-MEM media overnight. The purified antibody proteins were serially diluted in medium (DMEM plus 0.1% BSA) and added to the plated cells at concentrations ranging from 0 to 100 nM. […] Luciferase activity was measured after incubating the cells for 6 hours at 37° C. in a humidified 7.5% CO2 incubator using BRIGHT GLOW™ luciferase assay system (Promega). Control mAb=RN624.

rat NGF (rNGF) = rat NGF (rNGF) (Rattus norvegicus, UniProt P25427); assay: BIACORE binding affinity to rat NGF
Sequence of rat NGF (rNGF) (P25427 122-241): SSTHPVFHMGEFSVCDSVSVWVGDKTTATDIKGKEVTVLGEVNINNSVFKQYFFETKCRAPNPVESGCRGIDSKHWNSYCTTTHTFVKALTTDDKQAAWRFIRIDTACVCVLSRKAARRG
Procedure: (§1) Antigen binding affinities of the antibodies for human NGF were determined by surface kinetics using a real-time biosensor surface plasmon resonance assay (BIACORE™). Antibodies were captured on either a goat, anti-human or anti-mouse IgG polyclonal antibody surface created by direct amine coupling of the capture antibody to a BIACORE™ chip. Various concentrations of human NGF were injected over the captured antibody surfaces while the association of the antigen to the antibody and the dissociation of the bound complex were monitored in real time. Kinetic analysis was performed to obtain the equilibrium dissociation constant (KD) and dissociation rate constant, and the latter was used to calculate the antigen/antibody complex dissociation t1/2 (Table 1).
Human NGF (NGF) is highly homologous in amino acid sequence to mouse NGF (mNGF) and rat NGF (rNGF) with about 90% identity. The binding affinities of the antibodies to both mNGF and rNGF were determined as described above.
The binding affinity of selected purified anti-NGF antibodies to mNGF and rNGF were also determined (Table 6).

NGF = NGF (Homo sapiens, UniProt P01138, DEL136-138/DEL208-209); assay: BIACORE surface kinetics, binding affinity for human NGF
Sequence of NGF (P01138 with tags, fused parts or gaps DEL136-138/DEL208-209): as the sequence (P01138 with tags, fused parts or gaps DEL136-138/DEL208-209) above
Procedure: as §1
Antigen binding affinities of selected purified antibodies for NGF were also determined by surface kinetics employing a real-time biosensor surface plasmon resonance assay (BIACORE™) as described above. For convenience, antibody 301272-3H10-A10 was renamed “REGN261” (HCVR/LCVR SEQ ID NOs:84/92 and hIgG1 SEQ ID NO:541); 301272-6E07-D10 was renamed “REGN263” (HCVR/LCVR SEQ ID NO:208/216 and hIgG1 SEQ ID NO:541).

Sequence of Human NGF binding to human TrkA-hFc (P01138 with tags, fused parts or gaps DEL136-138/DEL208-209): as above

tanezumab [RN624]
% Binding TrkA-hFc [1]: 10%
IC50 [2]: 150000 to 200000 pM
IC50 [3]: < 186 pM
IC50 [4]: ~105000 pM
Kd (rat NGF (rNGF); Table 5): 1.5 pM
Kd (rat NGF (rNGF); Table 6, selected purified antibodies): 1.51 pM
Kd (NGF; Table 1, read-out: KD): 1.3 pM
Kd (NGF; Table 2, selected purified antibodies, read-out: KD): 1.25 pM
Kd (NGF; Table 5, read-out: Human NGF KD): 1.25 pM
Kd (NGF; Table 6, selected purified antibodies, read-out: NGF KD): 1.25 pM

Source: patent publication US8613927B2, “High affinity human antibodies to human nerve growth factor” (Regeneron Pharmaceuticals, Inc., priority 2007, dated 2013)
